Measured values reported in article PMC5561102, “Fusion protein analysis reveals the precise regulation between Hsp70 and Hsp100 during protein disaggregation” (Scientific Reports, 2017).

How the values were obtained:
ClpB (Escherichia coli) = ClpB (Escherichia coli) (UniProt P63284); settings: cited from earlier work
[1] = target: TK-B (Thermus thermophilus) (UniProt Q56235)
[2] = target: TK_NBD-B (Thermus thermophilus) (UniProt Q56235)
[3] = target: TK_ΔSBDα_K69A-B (Thermus thermophilus) (UniProt Q56235)
[4] = target: TK_ΔSBDα_T195A-B (Thermus thermophilus) (UniProt Q56235)
[5] = target: TK_NBD_K69A-B (Thermus thermophilus) (UniProt Q56235)
[6] = target: TK_NBD_T195A-B (Thermus thermophilus) (UniProt Q56235)
[7] = target: TK_NBD-B (Thermus thermophilus) (UniProt Q56235); remark: listed apart in the source
Target sequence in this assay (Q56235 other isoform, or with tags, fused parts or gaps): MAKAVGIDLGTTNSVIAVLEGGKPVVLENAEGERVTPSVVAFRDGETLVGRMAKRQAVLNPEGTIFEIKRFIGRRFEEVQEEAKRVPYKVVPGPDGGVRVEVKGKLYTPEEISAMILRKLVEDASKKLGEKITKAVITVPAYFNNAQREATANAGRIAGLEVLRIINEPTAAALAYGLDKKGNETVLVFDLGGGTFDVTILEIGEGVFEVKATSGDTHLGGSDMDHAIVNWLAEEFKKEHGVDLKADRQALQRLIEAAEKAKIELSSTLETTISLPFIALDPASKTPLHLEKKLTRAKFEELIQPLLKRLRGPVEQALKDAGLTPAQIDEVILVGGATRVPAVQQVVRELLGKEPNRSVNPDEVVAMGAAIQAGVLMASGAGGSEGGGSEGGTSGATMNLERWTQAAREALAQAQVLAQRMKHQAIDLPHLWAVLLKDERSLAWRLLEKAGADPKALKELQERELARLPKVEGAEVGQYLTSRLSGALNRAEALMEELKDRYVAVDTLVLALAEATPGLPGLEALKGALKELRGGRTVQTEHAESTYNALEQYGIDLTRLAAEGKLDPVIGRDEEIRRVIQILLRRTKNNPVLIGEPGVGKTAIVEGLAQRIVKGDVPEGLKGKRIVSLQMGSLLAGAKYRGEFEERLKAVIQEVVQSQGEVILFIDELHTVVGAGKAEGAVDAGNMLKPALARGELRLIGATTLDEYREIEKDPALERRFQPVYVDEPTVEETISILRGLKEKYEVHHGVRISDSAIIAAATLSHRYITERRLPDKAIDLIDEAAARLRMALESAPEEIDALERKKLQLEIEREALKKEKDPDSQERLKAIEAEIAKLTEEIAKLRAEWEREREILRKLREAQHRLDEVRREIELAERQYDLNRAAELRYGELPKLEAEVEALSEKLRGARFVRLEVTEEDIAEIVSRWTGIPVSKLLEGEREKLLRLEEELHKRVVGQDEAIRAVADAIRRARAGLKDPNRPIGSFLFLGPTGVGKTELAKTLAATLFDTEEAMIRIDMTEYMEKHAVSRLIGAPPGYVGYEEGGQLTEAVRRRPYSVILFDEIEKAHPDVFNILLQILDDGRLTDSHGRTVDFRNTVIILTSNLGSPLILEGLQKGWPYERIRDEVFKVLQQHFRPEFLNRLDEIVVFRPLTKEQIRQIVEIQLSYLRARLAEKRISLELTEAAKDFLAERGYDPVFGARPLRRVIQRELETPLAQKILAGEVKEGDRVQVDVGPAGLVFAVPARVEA

[8] = target: TK_NBD_K69A-B (Thermus thermophilus) (UniProt Q56235); remark: listed apart in the source
[9] = target: TK_NBD_T195A-B (Thermus thermophilus) (UniProt Q56235); remark: listed apart in the source
[10] = target: TK_NBD-B (Thermus thermophilus) (UniProt Q56235); remark: listed apart in the source
Target sequence in this assay (Q56235 other isoform, or with tags, fused parts or gaps): as above

Thermus thermophilus DnaK (TDnaK), sequence (Q56235 whole entry, the tested form may be a part): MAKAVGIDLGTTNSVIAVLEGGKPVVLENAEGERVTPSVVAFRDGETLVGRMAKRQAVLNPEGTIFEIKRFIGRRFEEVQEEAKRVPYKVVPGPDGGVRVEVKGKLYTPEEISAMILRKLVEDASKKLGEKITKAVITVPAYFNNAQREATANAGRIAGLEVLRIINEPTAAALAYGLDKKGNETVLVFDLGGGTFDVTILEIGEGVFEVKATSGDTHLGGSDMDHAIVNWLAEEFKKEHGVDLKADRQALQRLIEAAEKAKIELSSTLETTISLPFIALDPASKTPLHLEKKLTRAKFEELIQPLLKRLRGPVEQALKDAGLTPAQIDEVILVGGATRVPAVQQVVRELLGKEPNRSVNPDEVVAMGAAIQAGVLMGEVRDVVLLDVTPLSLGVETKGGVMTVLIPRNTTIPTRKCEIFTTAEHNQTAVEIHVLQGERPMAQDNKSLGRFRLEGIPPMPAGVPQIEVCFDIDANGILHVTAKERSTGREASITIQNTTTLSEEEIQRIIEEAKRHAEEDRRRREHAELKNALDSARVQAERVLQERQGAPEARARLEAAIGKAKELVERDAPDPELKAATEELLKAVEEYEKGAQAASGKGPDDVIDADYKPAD
TK_NBD_T195A-B (Thermus thermophilus), sequence (Q56235 other isoform, or with tags, fused parts or gaps T195A | T195A): as the sequence (Q56235 other isoform, or with tags, fused parts or gaps) above, with T195A counted along it
TK_NBD_K69A-B (Thermus thermophilus), sequence (Q56235 other isoform, or with tags, fused parts or gaps K69A | K69A): as the sequence (Q56235 other isoform, or with tags, fused parts or gaps) above, with K69A counted along it
DnaK, sequence (P0A6Y8 2-638): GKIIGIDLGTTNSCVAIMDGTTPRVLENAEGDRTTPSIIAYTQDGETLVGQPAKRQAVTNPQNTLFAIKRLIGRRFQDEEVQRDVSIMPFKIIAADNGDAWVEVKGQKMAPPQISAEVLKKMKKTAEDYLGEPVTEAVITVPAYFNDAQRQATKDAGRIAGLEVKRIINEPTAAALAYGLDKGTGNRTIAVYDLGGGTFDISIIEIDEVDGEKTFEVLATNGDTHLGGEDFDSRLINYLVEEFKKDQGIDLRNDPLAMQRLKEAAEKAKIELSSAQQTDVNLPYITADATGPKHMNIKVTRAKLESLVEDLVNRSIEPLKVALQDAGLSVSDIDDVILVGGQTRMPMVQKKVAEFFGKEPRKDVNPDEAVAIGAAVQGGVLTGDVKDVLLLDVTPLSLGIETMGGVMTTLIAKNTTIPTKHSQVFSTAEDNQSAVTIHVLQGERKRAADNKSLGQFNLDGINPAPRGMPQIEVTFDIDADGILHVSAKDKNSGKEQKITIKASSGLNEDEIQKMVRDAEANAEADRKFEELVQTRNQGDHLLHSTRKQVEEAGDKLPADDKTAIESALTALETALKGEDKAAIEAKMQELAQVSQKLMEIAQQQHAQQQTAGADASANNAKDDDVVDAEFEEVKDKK
ClpB (Escherichia coli), sequence (P63284 whole entry): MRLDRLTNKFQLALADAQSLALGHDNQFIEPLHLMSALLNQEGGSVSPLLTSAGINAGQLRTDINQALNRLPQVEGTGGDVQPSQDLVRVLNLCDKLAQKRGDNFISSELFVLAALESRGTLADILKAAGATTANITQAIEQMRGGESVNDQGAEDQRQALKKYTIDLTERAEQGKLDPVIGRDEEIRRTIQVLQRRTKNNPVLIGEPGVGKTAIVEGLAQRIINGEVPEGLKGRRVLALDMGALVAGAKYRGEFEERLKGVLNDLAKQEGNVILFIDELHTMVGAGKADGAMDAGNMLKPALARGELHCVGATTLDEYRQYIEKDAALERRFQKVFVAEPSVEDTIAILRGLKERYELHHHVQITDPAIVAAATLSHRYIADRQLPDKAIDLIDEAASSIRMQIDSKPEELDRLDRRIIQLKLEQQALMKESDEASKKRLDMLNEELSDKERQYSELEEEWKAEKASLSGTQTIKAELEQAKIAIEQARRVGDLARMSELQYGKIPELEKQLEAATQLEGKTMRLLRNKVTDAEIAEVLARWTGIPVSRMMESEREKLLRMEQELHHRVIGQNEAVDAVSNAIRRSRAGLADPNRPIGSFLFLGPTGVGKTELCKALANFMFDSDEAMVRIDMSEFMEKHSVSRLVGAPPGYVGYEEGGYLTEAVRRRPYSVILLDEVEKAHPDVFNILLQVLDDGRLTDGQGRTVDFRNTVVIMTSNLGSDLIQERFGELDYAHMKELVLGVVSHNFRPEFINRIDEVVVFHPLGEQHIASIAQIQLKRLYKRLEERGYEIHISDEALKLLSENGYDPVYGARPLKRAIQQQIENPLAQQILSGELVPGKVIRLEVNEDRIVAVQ

DnaK (from UniProt P0A6Y8)
Kd (ClpB (Escherichia coli)): 25 µM

TK-B (from UniProt Q56235 1-615; Q9RA63 1-854)
ATPase activity of the fusion (TClpB portion stimulated by the fused TDnaK portion), 55 °C, 3 mM ATP, against unfused TClpB (times that of TClpB) [1]: 5

TK_NBD-B (from UniProt Q56235 1-377; Q9RA63 1-854)
ATPase activity of the fusion (TClpB portion stimulated by the fused NBD of TDnaK), 55 °C, 3 mM ATP, against TK-B [2]: 2 fold of TK-B

TK_ΔSBDα_K69A-B (from UniProt Q56235 1-501; Q9RA63 1-854)
ATPase activity of the fusion, 55 °C, 3 mM ATP, against TK K69A-B (fold of TK K69A-B) [3]: 1.5

TK_ΔSBDα_T195A-B (from UniProt Q56235 1-501; Q9RA63 1-854)
ATPase stimulation of the fusion, 55 °C, 3 mM ATP [4]: 2 fold

Thermus thermophilus DnaK (TDnaK) (from UniProt Q56235 1-615) (natural protein)
reactivation of heat-aggregated α-glucosidase by the fusion with unfused TDnaK, TDnaJ, TGrpE (TKJE) and 5 mM ATP, 55 °C, 90 min [5]: < 2%
reactivation of heat-aggregated α-glucosidase by the fusion with unfused TDnaK, TDnaJ, TGrpE (TKJE) and 5 mM ATP, 55 °C, 90 min [6]: < 2%
reactivation of heat-aggregated α-glucosidase by the fusion with unfused TDnaK, TDnaJ, TGrpE (TKJE) and 5 mM ATP, 55 °C, 90 min [7]: < 2%
rate of reactivation of heat-aggregated EYFP by the fusion with unfused TDnaK, TDnaJ, TGrpE (TKJE) and 5 mM ATP, 55 °C [8]: < 0.1 % min^-1
rate of reactivation of heat-aggregated EYFP by the fusion with unfused TDnaK, TDnaJ, TGrpE (TKJE) and 5 mM ATP, 55 °C [9]: < 0.1 % min^-1
rate of reactivation of heat-aggregated EYFP by the fusion with unfused TDnaK, TDnaJ, TGrpE (TKJE) and 5 mM ATP, 55 °C [10]: < 0.1 % min^-1
